The experiment addresses nicotinic acetylcholine receptor containing the alpha6 subunit (mouse, native in brain of wild type animals) (mouse), Q9R0W9.

Sequence of nicotinic acetylcholine receptor containing the alpha6 subunit (mouse, native in brain of wild type animals) (mouse), Q9R0W9 (Q9R0W9 31-494, chain 1 of 2): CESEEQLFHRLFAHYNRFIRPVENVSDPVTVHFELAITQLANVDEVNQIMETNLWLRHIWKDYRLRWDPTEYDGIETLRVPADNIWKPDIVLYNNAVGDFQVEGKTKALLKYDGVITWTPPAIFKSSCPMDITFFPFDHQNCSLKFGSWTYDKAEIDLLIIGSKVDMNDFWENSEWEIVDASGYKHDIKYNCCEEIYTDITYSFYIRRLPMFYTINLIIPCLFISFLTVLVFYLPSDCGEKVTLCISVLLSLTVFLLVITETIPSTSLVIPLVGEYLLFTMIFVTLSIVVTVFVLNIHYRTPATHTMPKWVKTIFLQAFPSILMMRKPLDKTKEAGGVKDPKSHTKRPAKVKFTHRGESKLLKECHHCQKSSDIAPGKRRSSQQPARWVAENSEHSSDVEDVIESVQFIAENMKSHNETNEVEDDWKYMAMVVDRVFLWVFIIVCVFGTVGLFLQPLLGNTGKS
Sequence of nicotinic acetylcholine receptor containing the alpha6 subunit (mouse, native in brain of wild type animals) (mouse), Q9R0W9 (Q9ERK7 26-501, chain 2 of 2, further chain): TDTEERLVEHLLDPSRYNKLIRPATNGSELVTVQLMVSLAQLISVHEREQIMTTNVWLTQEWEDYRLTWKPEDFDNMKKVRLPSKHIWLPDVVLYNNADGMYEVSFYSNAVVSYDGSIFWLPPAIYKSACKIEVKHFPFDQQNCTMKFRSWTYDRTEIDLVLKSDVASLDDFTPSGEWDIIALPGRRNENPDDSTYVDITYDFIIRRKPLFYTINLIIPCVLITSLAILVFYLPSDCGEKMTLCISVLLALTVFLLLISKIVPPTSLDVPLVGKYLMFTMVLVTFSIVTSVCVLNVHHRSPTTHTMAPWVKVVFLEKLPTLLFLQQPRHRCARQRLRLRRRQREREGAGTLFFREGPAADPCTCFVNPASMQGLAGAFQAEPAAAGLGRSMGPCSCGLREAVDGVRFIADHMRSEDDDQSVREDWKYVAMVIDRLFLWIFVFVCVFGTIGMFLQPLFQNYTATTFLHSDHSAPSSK

The molecule GCCSNPVCHLEHSNLC (modifications not checked) [α-conotoxin MII, P56636 49-64] returned a share of epibatidine binding sites sensitive to αCtxMII of 20%.

(Values after patent US20040006782A1.)
